B2: Nop5 from Pyrococcus furiosus (natural protein, P. furiosus, UniProt Q8U4M1 1-402, looked up)
chain: MKAFISENVRGIYAFDENGNLIEKRYFTDKPEKVLDQLLKGEITKDLEELLNSLKEKGYDEFVFEHPELSRRAKELGFSATTEFPNIAGERLRSNPEEFLGENWFEEYYKVGVALTRMRIQEQSGARDKMVIQAIEALDDVDKVINLLVARLREWYSLHFPELDELLPKHPQYVAFVKTVGHRDNINEEVLRELGLSEEKIKKILEAKEKTMGAWMDQTDIEVVRQLAEEIDRLYQLRKKLEDYIDRAMDDVAPNLKALVGAKLAARLISLAGGLRELAMMPSSTIQVLGAEKALFRHLRTGAKPPKHGVIYQYPAINRSPWWQRGKIARALAGKLAIAARVDYFSGEYIAEELKKELEARIREIKEKYPKPPKRKREERKGKKPWKKDKKKKKKKEKPRRR
notes: Nop5, Pyrococcus furiosus, full-length gene amplified from genomic DNA, UniProtKB Q8U4M1; Cloned into pET-M11 with a TEV-cleavable N-terminal His6-Tag; also called Nop5_(2) (homodimer); source: E. coli BL21(DE3), purified (heat step at 80 °C, HisTrap, TEV cleavage, reverse HisTrap); not shown: His6, N-terminal, cleaved

Data set [1] addresses T1, Nop5_(2)–Fib2 complex from Pyrococcus furiosus (P. furiosus, UniProt Q8U4M1 1-402; Q8U4M2 1-227).
T1 construct: Nop5, Pyrococcus furiosus, full-length, UniProtKB Q8U4M1; fibrillarin, Pyrococcus furiosus, full-length, UniProtKB Q8U4M2; Formed beforehand and then mixed with Snu13 and guide RNA (1:2:1); also called Nop5_(2)–Fib2 tetramer; source: E. coli BL21(DE3), each protein purified; mixed 1:1.1, 15 min at 80 °C, complex purified by size-exclusion chromatography; not shown: His6, N-terminal, cleaved; …
T1 sequence (looked up) 1: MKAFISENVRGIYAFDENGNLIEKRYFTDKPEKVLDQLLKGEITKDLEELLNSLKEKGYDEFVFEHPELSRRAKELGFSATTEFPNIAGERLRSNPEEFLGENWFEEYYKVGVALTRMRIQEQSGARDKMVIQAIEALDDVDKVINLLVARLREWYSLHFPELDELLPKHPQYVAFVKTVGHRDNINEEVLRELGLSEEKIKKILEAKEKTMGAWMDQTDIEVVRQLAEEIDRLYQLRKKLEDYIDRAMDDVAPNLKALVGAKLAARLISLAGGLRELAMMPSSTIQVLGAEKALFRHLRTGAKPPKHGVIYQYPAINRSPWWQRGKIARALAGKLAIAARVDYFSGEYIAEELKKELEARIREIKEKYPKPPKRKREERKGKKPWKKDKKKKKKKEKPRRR
T1 sequence (looked up) 2: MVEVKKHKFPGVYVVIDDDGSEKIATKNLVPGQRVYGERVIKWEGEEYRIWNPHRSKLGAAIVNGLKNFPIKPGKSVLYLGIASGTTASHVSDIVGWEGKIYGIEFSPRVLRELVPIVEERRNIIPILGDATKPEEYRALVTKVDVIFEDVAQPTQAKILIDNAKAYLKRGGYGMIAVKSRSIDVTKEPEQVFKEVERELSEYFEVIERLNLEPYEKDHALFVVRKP
Briefly: SEC-MALS; RNP assembled with yeast guide RNA snR51, Snu13 and Nop5_(2)–Fib2; Superdex S200 Increase 10/300 GL, miniDawn TREOS, Optilab T-rex; the guide RNA is part of the particle. Particulars: both partners purified. For orientation: Size exclusion chromatography separates by hydrodynamic size, large species first.

Data set [2] addresses T1, Nop5_(2)–Fib2 complex from Pyrococcus …. Briefly: SEC-MALS; RNP assembled with archaeal guide RNA sR26, Snu13 and Nop5_(2)–Fib2; Superdex S200 Increase 10/300 GL, miniDawn TREOS, Optilab T-rex; the guide RNA is part of the particle; monomeric and dimeric RNP peaks partially overlapped. The settings on record: both partners purified.
Data set [3] deals with the molecule itself. Briefly: SEC; Nop5 and fibrillarin mixed 1:1.1, 15 min at 80 °C, cooled to room temperature; Superdex S200 Increase 10/300 GL; 20 mM sodium phosphate, 500 mM NaCl, pH 6.6.
The target of data set [4] is B2. Described as above. Particulars: both partners purified.

B1: Snu13 from Saccharomyces cerevisiae (natural protein, S. cerevisiae, UniProt P39990 1-126, looked up)
chain: MSAPNPKAFPLADAALTQQILDVVQQAANLRQLKKGANEATKTLNRGISEFIIMAADCEPIEILLHLPLLCEDKNVPYVFVPSRVALGRACGVSRPVIAASITTNDASAIKTQIYAVKDKIETLLI
notes: Snu13, S. cerevisiae, full-length SNU13 gene, codon-optimised synthetic gene, UniProtKB P39990; Cloned into pET-M11 with a TEV-cleavable N-terminal His6-Tag; also called Sc Snu13; source: E. coli BL21 (DE3), purified (HisTrap, QTrap flow-through, TEV cleavage, reverse HisTrap); not shown: His6, N-terminal, cleaved
B1: the entries for the “stoichiometry N” value in data set [1] and in data set [2] were 1 copies per Nop5_(2)–Fib2 tetramer and 2 copies per Nop5_(2)–Fib2 tetramer, respectively.

Turning to B2, the binding result in data set [3] was “binds”.

B3: fibrillarin from Pyrococcus furiosus (enzyme, P. furiosus, UniProt Q8U4M2 1-227, looked up)
chain: MVEVKKHKFPGVYVVIDDDGSEKIATKNLVPGQRVYGERVIKWEGEEYRIWNPHRSKLGAAIVNGLKNFPIKPGKSVLYLGIASGTTASHVSDIVGWEGKIYGIEFSPRVLRELVPIVEERRNIIPILGDATKPEEYRALVTKVDVIFEDVAQPTQAKILIDNAKAYLKRGGYGMIAVKSRSIDVTKEPEQVFKEVERELSEYFEVIERLNLEPYEKDHALFVVRKP
notes: fibrillarin, Pyrococcus furiosus, full-length gene amplified from genomic DNA, UniProtKB Q8U4M2; Cloned into pET-M11 with a TEV-cleavable N-terminal His6-Tag; source: E. coli BL21(DE3), purified (heat step at 80 °C, HisTrap, TEV cleavage, reverse HisTrap); not shown: His6, N-terminal, cleaved
B3: the binding result in data set [4] is “binds”.

The record behind these values is article PMC8413462, “Eukaryotic Box C/D methylation machinery has two non-symmetric protein assembly sites” (Scientific Reports, 2021).
